{
  "source": "the nanobody polyreactivity screen of Harvey et al. (2022)",
  "data": [
    {"test": "yeast display, Sf9 membrane polyspecificity reagent, FACS + sequencing; frameworks hold sequencing errors", "in_short": "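Galactose induction of a Saccharomyces cerevisiae BJ5465 synthetic nanobody display library ran 36–48 hours. The cells were then stained for 1 hour at 4 °C with 10% biotinylated, detergent-solubilized Sf9 membrane reagent, pulled down on streptavidin microbeads and FACS-sorted into low and high (top ~1%) gates on expression and reagent-binding fluorescence. Labels for polyreactivity follow the gate of origin.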", "values": [
      {"sequence": "QVQLVESGGGLVQAGGSLRLSCAASGSTFPSNAMGWYRQAPGKESELVAAISDSGSTTYYADSVKGRFTISRDNAKNTVYLQMNSLKPEDTAVYYCNAYLRFVDVSLDYQLLLEHDYWGQGTQVTVSS", "polyreactivity (PSR sort gate)": "low polyreactivity"},
      {"sequence": "QVQLVESGGGLVQAGGSLRLSCAASGSTFPSYAMGWYRQAPGKERELVAAINSGGGTNYADSVKGRFTISRDNAKNTVYLQMNSLKPEDTAVYYCAKSRYDYTKTEGGYWGQGSQVTVSS", "polyreactivity (PSR sort gate)": "low polyreactivity"},
      {"sequence": "QVQLVESGGGLVQAGGSLRLSCAASGSTFPSYAMGWYRQAPGKERELVAAINSGGGTNYADSVKGRFTISRDNAKNTVYLQMNSLKPEDTAVYYCATDDPLSQINEQGMDYWGQGTQVTVSS", "polyreactivity (PSR sort gate)": "low polyreactivity"},
      {"sequence": "QVQLVESGGGLVQAGGSLRLSCAASGSTFPSYAMGWYRQAPGKERELVAAISRRSSRTYYADSVKGRFTISRDNAKNTVYLQMNSLKPEDTAVYYCNADAGRHSDEYGYDYWGQGTQVTVSS", "polyreactivity (PSR sort gate)": "high polyreactivity"},
      {"sequence": "QVQLVESGGGLVQAGGSLRLSCAASGSTFPVNAMGWYRQAPGKERELVARIRGSGGSTYYADSVKGRFTISRDNAKNTVYLQINSLKPEDTAVYYCAARYIGYSSYKYDYWGQGTQVTVSS", "polyreactivity (PSR sort gate)": "high polyreactivity"},
      {"sequence": "QVQLVESGGGLVQAGGSLRLSCAASGSTFPVYAMGWYRQAPGKERELVAAISRAGSTNYADSVKGRFTISRDNAKNTVYLQMNSLKPEDTAVYYCAARGYLWAGEWYVRRDYWGQGTQVTVSS", "polyreactivity (PSR sort gate)": "high polyreactivity"},
      {"sequence": "QVQLVESGGGLVQAGGSLRLSCAASGSTFPVYAMGWYRQAPGKERELVAAITSGVSTNYADSVKGRFTISRDNAKNTVYLQMNSLKPEDTAFYYCAKDFGLLPIRDDYWGQGTQVTVSS", "polyreactivity (PSR sort gate)": "low polyreactivity"},
      {"sequence": "QVQLVESGGGLVQAGGSLRLSCAASGSTFPVYAMGWYRQEPGKERELVAAITSGVSTNYADSVKGRFTISRDNAKNTVYLQMNSLKPEDTAVYYCAKDFGLLPIRDDYWGQGTQVTVSS", "polyreactivity (PSR sort gate)": "low polyreactivity"},
      {"sequence": "QVQLVESGGGLVQAGGSLRLSCAASGSTFPWNAMGWYRQAPGKERELVAAIRTGGGRTYYADSVKGRFTISRDNAKNTVYLQMNSLKPEDTAVYYCNAYQSSGRYRNSYGYWGQGTQVTVSS", "polyreactivity (PSR sort gate)": "high polyreactivity"},
      {"sequence": "QVQLVESGGGLVQAGGSLRLSCAASGSTFPWYAMGWARQAPGKETELVAAITTSGGTTYYADSVKGRFTISRDNAKNTVYLQMNSLKPEDTAVYYCNKQFGYPWEYYSYSYDYWGQGTQVTVSS", "polyreactivity (PSR sort gate)": "low polyreactivity"},
      {"sequence": "QVQLVESGGGLVQAGGSLRLSCAASGSTFPWYAMGWYRQAPGKERELVAAISFSGGSTYYADSVKGRFTISRDNAKNTVYFQMNSLKPEDTAVYYCAAVWGYVIWVDTAVYREYDYWGQGTQVTVSS", "polyreactivity (PSR sort gate)": "high polyreactivity"},
      {"sequence": "QVQLVESGGGLVQAGGSLRLSCAASGSTFPYYAMGRYRPAPGKEMELVAAISQNGGSSYYADSVKGRFTISRDNAKNTVYLQINSLKPEDTAVYYCNADGVGGEYRLSGYDYWGQGTQVTVSS", "polyreactivity (PSR sort gate)": "low polyreactivity"},
      {"sequence": "QVQLVESGGGLVQAGGSLRLSCAASGSTFPYYAMGWSRQAPGKERELVAAISGSGGTTYYADSVKGRFTISRDNAKNTVYLQMNSLKPEYTAVYYCAVDIGVGYGYYYWGQGTQVTVSS", "polyreactivity (PSR sort gate)": "low polyreactivity"},
      {"sequence": "QVQLVESGGGLVQAGGSLRLSCAASGSTFPYYAMGWYRQAPGKERELVAAISQNGGSTYYADSVKGRFTISRDNAKNTVYLQMNSLKPEDTAVYYCNADGVGGEYRLSGYDYWGQGTQVTVSS", "polyreactivity (PSR sort gate)": "low polyreactivity"},
      {"sequence": "QVQLVESGGGLVQAGGSLRLSCAASGSTFPYYAMGWYRQAPGKERELVAAISSSGGSTYYADSVKGRFTFSRDNAKNTVYLLMNSLKPEDTAVYYCNVVKSRGLFSYDYWGQGSQVTVSS", "polyreactivity (PSR sort gate)": "high polyreactivity"},
      {"sequence": "QVQLVESGGGLVQAGGSLRLSCAASGSTFPYYAMGWYRQAPGKERELVATITTSGVSTYYADSVKGRFTISRDNAKNTVYLQMNSLKPEDTAVYYCAADPPGFTQYGYWGQGTQVTVSS", "polyreactivity (PSR sort gate)": "low polyreactivity"},
      {"sequence": "QVQLVESGGGLVQAGGSLRLSCAASGSTFPYYAMGWYRQAPGKERELVAVITSSGSRTYYADSVKGRFTISRDNAKNTVYLQMNSLKPEDTAVYYCARDTRYYRPYRSQYDYWGQGTQVTVSS", "polyreactivity (PSR sort gate)": "high polyreactivity"},
      {"sequence": "QVQLVESGGGLVQAGGSLRLSCAASGSTFPYYAMGWYRQATGKERELVAAISSGGRTTYADSVKGRFTISRDNAKNTVYLQMNSLKPEDTAVYYCNRRYTHGGFSKYEYWGQGTQVTVSS", "polyreactivity (PSR sort gate)": "high polyreactivity"},
      {"sequence": "QVQLVESGGGLVQAGGSLRLSCAASGSTFQFYAMGWYRQAPGKERELVASITSRGGNTHYADSVKGRFTISRDNAKNTVYLQMNSLKPEDTAVYYCAARGGWYGTYDYWGQGTQVTVSS", "polyreactivity (PSR sort gate)": "low polyreactivity"},
      {"sequence": "QVQLVESGGGLVQAGGSLRLSCAASGSTFQFYAMRWYRQAPGKERDLVAAIRSSDDSTYYADSVKGRFTISRDNAKNTVYLQMKSLKPEDTAVYYCAAVLDFYGVWYDYWGQGTQVTVSS", "polyreactivity (PSR sort gate)": "high polyreactivity"},
      {"sequence": "QVQLVESGGGLVQAGGSLRLSCAASGSTFQGYSMGWYRPAPGKERELVAAISGSGGNTYYADSVKGRFTISRDNAKNTVYLQMNSLKPEDTAVYYCAAGHVRTDWRYGYWGQGTQVTVSS", "polyreactivity (PSR sort gate)": "low polyreactivity"},
      {"sequence": "QVQLVESGGGLVQAGGSLRLSCAASGSTFQINAMGWYRQATGTERELGAAIDGGGDTYYADSVKGRFTISRDNAKNTFYLQMNSLKPEDTAVYYCNARSWARKSNGGSRIRYDYWGQGTQVTVSS", "polyreactivity (PSR sort gate)": "low polyreactivity"},
      {"sequence": "QVQLVESGGGLVQAGGSLRLSCAASGSTFQNNAMGWSRQAPGKERELVAGITGGGGNTNYADSVKGRFTISRDNTKNTVYLQMNSRTPEDTAVYYCAADDPWLGVDFGYWGQGTQVTLSS", "polyreactivity (PSR sort gate)": "low polyreactivity"},
      {"sequence": "QVQLVESGGGLVQAGGSLRLSCAASGSTFQPYAMGWYRQAPGKERELVAAISWSGVSTSYADSVKGRFTISRDNAKNTVYLQMNSLKPEETAVYYPFYEYYYWVQGTQVTVSS", "polyreactivity (PSR sort gate)": "low polyreactivity"},
      {"sequence": "QVQLVESGGGLVQAGGSLRLSCAASGSTFQRYAMGWYRQAPGKERELVAAITSGGSTYYADSVKGRFTISRDNAKNTVYLQMISLKPEDTAVYYCNAAWFYRYGYWGQGTQVTVSS", "polyreactivity (PSR sort gate)": "high polyreactivity"},
      {"sequence": "QVQLVESGGGLVQAGGSLRLSCAASGSTFQSNAMGWYRQAPGTEREMVATITRGGGTSYADSVKGRFTISRDNAKNTVYVQMNSLQPEDTAVYYCNARRQRYYTQGRFYYWGQGTQVTVSS", "polyreactivity (PSR sort gate)": "high polyreactivity"},
      {"sequence": "QVQLVESGGGLVQAGGSLRLSCAASGSTFQSNARGWYRQAPGKERELVASITSSGVSTYYADSVKGRFTISRDNAKNTVYLQMNSLKPEDTAVYYCAASSYDAYDYGFRFDYWGQGTQVTVSS", "polyreactivity (PSR sort gate)": "low polyreactivity"},
      {"sequence": "QVQLVESGGGLVQAGGSLRLSCAASGSTFQSYAMGWYRQAPGKERELVAAITTTGTRTYYADSVKGRFTISRDNAKNTVYFQMNSLKPEDTAVYSCNAQRLQAHRTSRRYDYWGQGTQVTVSS", "polyreactivity (PSR sort gate)": "high polyreactivity"},
      {"sequence": "QVQLVESGGGLVQAGGSLRLSCAASGSTFQTYAMGWFRQAPGQERELVAAITSGGSTNYADSVKGRFTISRDNAKNTVSLQMNSLKPEDTAVYYCNKKSRRQYDYWGQGTQVTVSS", "polyreactivity (PSR sort gate)": "low polyreactivity"},
      {"sequence": "QVQLVESGGGLVQAGGSLRLSCAASGSTFQVNVMGWYRPAPGKEREFVAGISYSGGSTYYADSVKGRFTISRDNAKNTVYLQMNSLKPDDTAVYYCAAEEDYNIAGSWTYTYDYWGQGTQVTVSS", "polyreactivity (PSR sort gate)": "low polyreactivity"},
      {"sequence": "QVQLVESGGGLVQAGGSLRLSCAASGSTFQVYAMGWYRQAPGKERELVAAISYRDGNTYYADSVKGRFTISRDNAKNTFYLQMNSLKPEDTAVYYCNAGLYLPSGYRRSNGYESDYWGQGTQVTVSS", "polyreactivity (PSR sort gate)": "high polyreactivity"},
      {"sequence": "QVQLVESGGGLVQAGGSLRLSCAASGSTFQWNALGWYRQAPGKERELVASITDSGGRTNYADSVKGRFTISRDNAKNTVYLQMNSLKPEDTAVYYCNAAGYRRSTWWYDYWGQGSQVTVSS", "polyreactivity (PSR sort gate)": "high polyreactivity"},
      {"sequence": "QVQLVESGGGLVQAGGSLRLSCAASGSTFQWNAMGWYRQAPGKERELVASITDSGGRTYYADSVKGRFTISRDNAKNTVYLQMNSLKPEDTAVYYCAAVSLWWSDYYFVEYDYWGQGTQVTVSS", "polyreactivity (PSR sort gate)": "high polyreactivity"},
      {"sequence": "QVQLVESGGGLVQAGGSLRLSCAASGSTFQWYAMGWYRQAPGKERELVAAITKSGGSTYYADSVKGRFTISRDNAKNTVYLQMNSLKPEDTAVYYCAAGFWYYATEYDYWGQGTQVTVSS", "polyreactivity (PSR sort gate)": "low polyreactivity"},
      {"sequence": "QVQLVESGGGLVQAGGSLRLSCAASGSTFQYNAKGWYRQAPGKERELVAAISSGGSTYYADSVKGRFTISRDNAKNTVYLQMNSLKPEDTAVYYCNALSRRQNWAGEVYYWGQGTQVTVSS", "polyreactivity (PSR sort gate)": "high polyreactivity"},
      {"sequence": "QVQLVESGGGLVQAGGSLRLSCAASGSTFQYYAMGWYREAPGKERELVAAITHSGTRTYYADSVKGRYTISRDNAKNTVYLQMNTLKPEDTAGYYCAARGYGKYDYWGQGTQVTVSS", "polyreactivity (PSR sort gate)": "high polyreactivity"},
      {"sequence": "QVQLVESGGGLVQAGGSLRLSCAASGSTFQYYAMGWYSQAPGKERELVAAISYGGSRTYYADSVKGRFTISRDNAKNTVYLQMNSLKPEDTAVYYCAKEKYRALAPYYYWGQGTQVTVSS", "polyreactivity (PSR sort gate)": "high polyreactivity"},
      {"sequence": "QVQLVESGGGLVQAGGSLRLSCAASGSTFRANAMGWYRQAPGKERELVAAIRWRGVGTYYADSVKGRFTISRDNAKNTVYLQMNSLKPEDTAVYYCAARRLGRSGNGSWGQGTQVTVSS", "polyreactivity (PSR sort gate)": "high polyreactivity"},
      {"sequence": "QVQLVESGGGLVQAGGSLRLSCAASGSTFRDYAMGWYRQAPGKERELVAAITSGGSTNYADSVKGRFTISRDNAKNTVYLQMNSLKPEDTAVYYCNARYAGWYTPWGRQSVYSDDYWGQGTQVTVSS", "polyreactivity (PSR sort gate)": "low polyreactivity"},
      {"sequence": "QVQLVESGGGLVQAGGSLRLSCAASGSTFRDYDMGWYRQAPGKERELVAAISRSGGRTYYADSVKGRFTISRDNAKNTVYLQMNSLKPEDTAVYYCAARRYTRRANPAYPYEYWGQGTQVTVSS", "polyreactivity (PSR sort gate)": "high polyreactivity"},
      {"sequence": "QVQLVESGGGLVQAGGSLRLSCAASGSTFRFNAMGWYRQAPGKERELVAVIRWRGGTTYYADSVKGRFTISRDNAKNTVYLQMKSLKPEDTAVYYCNADYWGQGTQVTVSS", "polyreactivity (PSR sort gate)": "high polyreactivity"},
      {"sequence": "QVQLVESGGGLVQAGGSLRLSCAASGSTFRFYAMGWYRQAPGKERELVATISSSGGTTYYADSVKGRFTISRDNAKNTVYLQMNSLKPEDTAVYYCAKDAFGWGRVYYYRSGYWGQGTQVTVSS", "polyreactivity (PSR sort gate)": "high polyreactivity"},
      {"sequence": "QVQLVESGGGLVQAGGSLRLSCAASGSTFRFYAMGWYRQAPGKERELVAVIRSTGSTYYADSVKGRFTISRDNAKNTVYLQMNSLKPEDTAVYYCAAQNAWWSNGRSYDYWGQGTQVTVSS", "polyreactivity (PSR sort gate)": "low polyreactivity"}
    ]}
  ]
}
